# Reference: US20200062856A1 (XDCEXPLORER SHANGHAI, published 2020)
# Like-named read-outs stand apart in the source and are kept apart here.
# B1: Humanized Antibody 12B12-12-MMAF (antibody, V domains shown)
# VH: EVQLVESGGGLVQPGGSLRLSCAASGFTFSNFGMHWVRQAPGKGLEWVSYISSGSTSFYYADTVKGRFTISRDNAKNSLYLQMNSLRDEDTAVYYCARTNSLLRGFFDAWGQGTTVTVSS
# VL: DIVLTQTPLSLSVTPGQPASISCRASQSVSSSSYTYLHWYLQKPGQPPQLLIKSASNLESGVPDRFSGSGSGTDFTLKISRVEAEDVGVYYCQHSWEIPLTFGQGTKLEIK
# modifications: MC-MMAF on cysteines reduced with TCEP (sites not given), DAR 3.0-5.0 per antibody
# Assays:
# [1] = molecular target: T1, human TPBG protein, full-length, on the cell surface (human, UniProt Q13641 32-420); assay: cell-based or functional assay
# T1 sequence (looked up): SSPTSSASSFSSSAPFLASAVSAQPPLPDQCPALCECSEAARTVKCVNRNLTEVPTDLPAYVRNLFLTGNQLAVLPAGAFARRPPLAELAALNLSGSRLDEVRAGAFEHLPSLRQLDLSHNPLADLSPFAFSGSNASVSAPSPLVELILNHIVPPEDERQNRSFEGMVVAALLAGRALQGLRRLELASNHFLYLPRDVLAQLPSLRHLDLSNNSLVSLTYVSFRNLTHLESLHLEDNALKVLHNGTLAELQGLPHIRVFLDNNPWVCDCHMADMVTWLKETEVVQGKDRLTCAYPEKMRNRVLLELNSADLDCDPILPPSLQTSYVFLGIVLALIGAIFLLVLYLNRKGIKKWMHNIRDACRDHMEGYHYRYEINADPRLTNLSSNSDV
# [2] = molecular target: T1, human TPBG protein, full-length, on the …; assay: cell-based or functional assay; remark: listed apart in the source
binder,measurement,setting,value
B1,"IC50 of cell killing, NCI-H1568 cells (CellTiter-Glo, 5 days)",[1],66 pM
same,"IC50 of cell killing, MDA-MB-468 cells (CellTiter-Glo, 5 days)",[2],60 pM
same,"IC50 of cell killing, NCI-H1568 cells (CellTiter-Glo, 5 days)",[2],50 pM
same,"IC50 of cell killing, NCI-H1975 cells (CellTiter-Glo, 5 days)",[2],130 pM
